# Source: patent US20060204979A1 (INVITROGEN, published 2006)
# Numbering of substitutions follows the chain as printed. Names may count otherwise.
# B1: RalGDS RA allele 16, R20M (other, not shown: small tags and cut ends)
# chain: YNQQVGDCCIIMVSLDVDNGNMYKSILVTSQDKAPTVIRKAMDKHNLDEDEPEDYELLQIISEDHKLKIPENANVFYAMNSAANYDFILKKR
# B2: RalGDS RA allele 4, I77T (other, not shown: small tags and cut ends)
# chain: B1 chain with M12R, I69T
# B3: RalGDS RA allele 2, L66P (other, not shown: small tags and cut ends)
# chain: B1 chain with M12R, L58P
# notes: also called clone 2
# B4: RalGDS RA alleles 6 and 15, K52E (other, not shown: small tags and cut ends)
# chain: B1 chain with M12R, K44E
# notes: also called clone 6 (RalGDS screen); clone 15
# B5: RalGDS RA allele 22, Q67R (other, not shown: small tags and cut ends)
# chain: B1 chain with M12R, Q59R
# B6: RalGDS RA alleles 17 and 19, Y31C (other, not shown: small tags and cut ends)
# chain: B1 chain with M12R, Y23C
# notes: also called clone 17; clone 19
# B7: RalGDS RA allele 23, M50V (other, not shown: small tags and cut ends)
# chain: B1 chain with M12R, M42V
# B8: RalGDS RA alleles 3, 8, 27, 30, 35 and 36, L65P (other, not shown: small tags and cut ends)
# chain: B1 chain with M12R, L57P
# notes: Six clones with the same amino acid change; also called clone 3; clone 8
# B9: Fos (leucine zipper region), negative control prey with Krev1 (other, UniProt P01100 132-211, looked up, not shown: large carriers)
# chain: LSPEEEEKRRIRRERNKMAAAKCRNRRRELTDTLQAETDQLEDEKSALQTEIANLLKEKEKLEFILAAHRPACKIPDDLG
# notes: domain: leucine zipper region; the only Fos ORF it describes is the leucine zipper region
# B10: RalGDS ras association (RA) domain expressed from pEXP22/RalGDS as GAL4 AD fusion (other, UniProt Q03386 767-864, looked up, not shown: large carriers)
# chain: SSSLPLYNQQVGDCCIIRVSLDVDNGNMYKSILVTSQDKAPTVIRKAMDKHNLDEDEPEDYELLQIISEDHKLKIPENANVFYAMNSAANYDFILKKR
# notes: domain: ras association domain; Prey; also called RalGDS wild type
# Assays:
# [1] = target: T1, Krev1 (full-length ORF) expressed from pEXP32/Krev1 as GAL4 DBD fusion (rat, UniProt P04386 1-147; P62836 1-184); test: cell-based or functional assay
# [2] = target: T1, Krev1 (full-length ORF) expressed from …; test: yeast two-hybrid; no growth under histidine selection with 10 mM 3-AT, no URA3 activation
# Method: To confirm the initial mutant phenotypes, plasmid DNA from the 17 mutant alleles and 6 wild type clones was co-transformed into MaV203 with pEXP32-Krev1. Transformants were tested for their ability to activate the URA3 reporter, as well as the HIS3 reporter in the presence of 10 mM, 25 mM, 50 mM or 100 mM 3-AT. All six wild type clones (7, 9, 11, 12, 20 and 21) produced strong URA⁺ and HIS3/100 mM 3-AT⁺ phenotypes, except clone 20. […] Clone 4 (I77T) and 23 (M50V) were the only mutants displaying a strong growth phenotype in the presence of 100 mM 3-AT.
# [3] = target: T1, Krev1 (full-length ORF) expressed from …; test: yeast two-hybrid negative control, HIS3/3-AT reporter
# Method: Yeast transformations were performed according to MaV203 competent yeast cell protocol (Invitrogen, Carlsbad, Calif.) using Gateway destination vectors pDEST32 and pDEST 22 (Invitrogen.com). Briefly, 25 μl cells are mixed with 1 μg bait construct (pEXP32-Bait ORF) and 1 μg prey allele library (EXP22-Prey allele library). pEXP32 is an expression construct in which a partner sequence (“bait”) is fused to the GAL4 DBD. pEXP22 is an expression construct in which a target sequence (“prey”) is fused to the GAL4 AD. Next, 180 μl LiAc/PEG solution is added and tube is inverted several times to mix. Incubate at 30° C. for 30 min, add 10 μl DMSO and heat shock at 42° C. for 10 min. Spin down cells at 1800 rpm, resuspend in 1 ml dH2O, serial dilute to 10⁻². Plate 100 μl of dilutions 10⁻¹ and 10⁻² on CSM-LW, and 100 μl undiluted and dilution 10⁻¹ on CSM-LW+5-FOA. Incubate plates at 30° C. for 3-5 five days. Patch colonies from CSM-LW+5-FOA onto CSM-LW (along with positive and negative control patches) and incubate at 30° C. for 2 days. Replica plate onto CSM-LW and CSM-LWH+3-AT (10 mM, 25 mM, 50 mM and 100 mM). […]
# In creating the allele library for RalGDS, it was calculated using the guidelines in Materials and Methods that 200,000 individual Kan⁺ clones was sufficient to provide good library representation for the 296 bp ORF. […]
# [4] = target: T1, Krev1 (full-length ORF) expressed from …; test: yeast two-hybrid (ProQuest)
binder,measurement,setting,value
B1,"3-AT Phenotype (concentration of 3-AT required to inhibit growth under histidine selection, HIS3 reporter)",[1],50 mM
B2,"3-AT Phenotype (concentration of 3-AT required to inhibit growth under histidine selection, HIS3 reporter)",[1],> 100 mM
B3,"3-AT Phenotype (concentration of 3-AT required to inhibit growth under histidine selection, HIS3 reporter)",[1],10 mM
same,binding result,[2],no binding
B4,"3-AT Phenotype (concentration of 3-AT required to inhibit growth under histidine selection, HIS3 reporter)",[1],10 mM
same,binding result,[2],no binding
B5,"3-AT Phenotype (concentration of 3-AT required to inhibit growth under histidine selection, HIS3 reporter)",[1],100 mM
B6,"3-AT Phenotype (concentration of 3-AT required to inhibit growth under histidine selection, HIS3 reporter)",[1],10 mM
same,binding result,[2],no binding
B7,"3-AT Phenotype (concentration of 3-AT required to inhibit growth under histidine selection, HIS3 reporter)",[1],> 100 mM
B8,"3-AT Phenotype (concentration of 3-AT required to inhibit growth under histidine selection, HIS3 reporter)",[1],10 mM
same,binding result,[2],no binding
B9,binding result,[3],no binding
B10,binding result,[4],binds
